The values below are quoted from earlier work in PMC2742733.

The term Kd denotes the concentration at which binding is half-saturated.

The data set has as its target TEM-8 (Homo sapiens) (UniProt Q9H6X2).

Regarding “Protective antigen (PA) (from UniProt P13423)”, the Kd was 130 nM.
